Values joined by “and” are separate entries in the source; they are usually repeats but may differ in a detail not shown here. Equal values may be shown once. Each block holds one molecule with its values, some of them ahead of it.
What was measured:
[1] = molecular target: human ChaC2 (wild type) (human) (UniProt Q8WUX2); test: crystal structure; wild type ChaC2 crystals, hanging drop, 14% PEG 8000, 14% ethylene glycol, 100 mM HEPES pH 7.5, 22 °C; three molecules in the asymmetric unit, each in a crystallographic dimer with a molecule of a nearby asymmetric unit
[2] = molecular target: the molecule itself; test: SEC; HiLoad 16/600 Superdex 75 pg, 20 mM Tris-HCl pH 7.1, 150 mM NaCl, 5 mM DTT, 2% glycerol, 1 mL/min, calibrated with molecular weight standards

- stoichiometry N [1]: 2
Molecule: human ChaC2 (wild type) (from UniProt Q8WUX2 1-184) (enzyme)

B1: human ChaC1 (enzyme, UniProt Q9BUX1 1-222, looked up)
chain: MKQESAAPNTPPTSQSPTPSAQFPRNDGDPQALWIFGYGSLVWRPDFAYSDSRVGFVRGYSRRFWQGDTFHRGSDKMPGRVVTLLEDHEGCTWGVAYQVQGEQVSKALKYLNVREAVLGGYDTKEVTFYPQDAPDQPLKALAYVATPQNPGYLGPAPEEAIATQILACRGFSGHNLEYLLRLADFMQLCGPQAQDEHLAAIVDAVGTMLPCFCPTEQALALV
notes: human ChaC1, cDNA from the Korean Human Gene Bank, cloned into pET-21a between BamHI and XhoI; source: E. coli C41 (DE3), purified (Ni2+ HiTrap Chelating HP, HiTrap Q HP, Superdex 75 pg)
- stoichiometry N [2]: 2 and 4

Source: paper PMC7022552, “Structural and Functional Analyses of Human ChaC2 in Glutathione Metabolism” (Biomolecules, 2019)
